Experiment [1] has as its target HLA-A*01:01. Briefly: IEDB peptide-MHC binding, purified MHC/competitive/fluorescence; ≥ and ≤ were set here for values at or beyond the usual limits of such assays.
The target of another experiment is HLA-A*24:02. Described as above.
The target in experiment [2] is HLA-A*11:01. The experiment is described as above. To be noted: source organism: Sudan ebolavirus.
A further experiment has as its target HLA-B*15:01. Described as above.
For experiment [3], the target named is HLA-B*07:02. The experiment is described as above.
The target of experiment [4] is HLA-A*03:01. Briefly: IEDB peptide-MHC binding, purified MHC/competitive/radioactivity; filed as Kd, often an IC50 or EC50 that approximates it; ≥ and ≤ were set here for values at or beyond the usual limits of such assays. Conditions: source organism: Vaccinia virus WR.
A further experiment concerns the target HLA-B*53:01. The description is as above. To be noted: source organism: Vaccinia virus WR.
The target in the next experiment is HLA-A*33:01. The description is as above. Conditions: source organism: Vaccinia virus WR.
In experiment [5] the target is HLA-B*07:02. The experiment is described as above. Conditions: source organism: Vaccinia virus WR.
The target of the next experiment is HLA-B*54:01. The description is as above. To be noted: source organism: Vaccinia virus WR.
In a further experiment the target is HLA-A*68:01. Described as above. Conditions: source organism: Vaccinia virus WR.
The target in experiment [6] is HLA-B*51:01. The description is as above. Conditions: source organism: Vaccinia virus WR.
Experiment [7] deals with HLA-A*11:01. The experiment is described as above. To be noted: source organism: Vaccinia virus WR.
For a further experiment, the target named is HLA-B*35:01. The experiment is described as above. To be noted: source organism: Vaccinia virus WR.
The next experiment concerns the target HLA-A*31:01. Described as above. Conditions: source organism: Vaccinia virus WR.
Another experiment addresses HLA-C*12:03. Briefly: IEDB peptide-MHC binding, purified MHC/direct/fluorescence; filed as Kd, often an IC50 or EC50 that approximates it; ≥ and ≤ were set here for values at or beyond the usual limits of such assays. To be noted: source organism: Vaccinia virus L-IPV.
The target in experiment [8] is HLA-A*02:01. The experiment can be described thus: IEDB peptide-MHC binding, purified MHC/competitive/fluorescence; filed as Kd, often an IC50 or EC50 that approximates it; ≥ and ≤ were set here for values at or beyond the usual limits of such assays.
In experiment [9] the target is HLA-A*02:01. The experiment can be described thus: IEDB peptide-MHC binding, purified MHC/competitive/fluorescence; ≥ and ≤ were set here for values at or beyond the usual limits of such assays.
The target in a further experiment is HLA-B*08:01. Described as above. Conditions: source organism: Vaccinia virus Copenhagen.
The target in another experiment is HLA-C*15:02. Briefly: IEDB peptide-MHC binding, purified MHC/direct/fluorescence; filed as Kd, often an IC50 or EC50 that approximates it; ≥ and ≤ were set here for values at or beyond the usual limits of such assays.
For experiment [10], the target named is HLA-A*03:01. The experiment is described as above. To be noted: source organism: Zaire ebolavirus.
A further experiment addresses HLA-A*02:11. Described as above. To be noted: source organism: Zaire ebolavirus.
Another experiment deals with HLA-A*02:12. The description is as above. Conditions: source organism: Zaire ebolavirus.
For another experiment, the target named is HLA-A*02:03. Described as above. To be noted: source organism: Zaire ebolavirus.
The target in another experiment is HLA-A*23:01. The experiment is described as above. Conditions: source organism: Zaire ebolavirus.
Another experiment concerns the target HLA-A*02:19. The description is as above. To be noted: source organism: Zaire ebolavirus.
The target in another experiment is HLA-A*24:03. The experiment is described as above. To be noted: source organism: Zaire ebolavirus.
The target in a further experiment is HLA-A*68:02. Described as above. Conditions: source organism: Zaire ebolavirus.
A further experiment has as its target HLA-A*02:16. The experiment is described as above. To be noted: source organism: Zaire ebolavirus.
Experiment [11] addresses HLA-A*01:01. Described as above. To be noted: source organism: Zaire ebolavirus.
In another experiment the target is HLA-A*69:01. Briefly: IEDB peptide-MHC binding, purified MHC/competitive/fluorescence; filed as Kd, often an IC50 or EC50 that approximates it; ≥ and ≤ were set here for values at or beyond the usual limits of such assays. To be noted: source organism: Zaire ebolavirus.
Experiment [12] concerns the target HLA-B*51:01. The description is as above. To be noted: source organism: Zaire ebolavirus.
A further experiment addresses HLA-B*27:03. Described as above. To be noted: source organism: Zaire ebolavirus.
In another experiment the target is HLA-B*39:01. The description is as above. To be noted: source organism: Zaire ebolavirus.
The target of experiment [13] is HLA-B*57:01. The experiment is described as above. Conditions: source organism: Zaire ebolavirus.
For a further experiment, the target named is HLA-B*46:01. The experiment is described as above. Conditions: source organism: Zaire ebolavirus.
The next experiment deals with HLA-A*26:01. Described as above. Conditions: source organism: Zaire ebolavirus.
For the next experiment, the target named is HLA-B*58:01. The experiment can be described thus: IEDB peptide-MHC binding, purified MHC/direct/fluorescence; filed as Kd, often an IC50 or EC50 that approximates it; ≥ and ≤ were set here for values at or beyond the usual limits of such assays.
For the next experiment, the target named is HLA-B*15:17. The experiment is described as above. Conditions: source organism: Salmonella enterica subsp. enterica serovar Typhimurium.
Experiment [14] addresses HLA-B*57:01. The description is as above. To be noted: source organism: Salmonella enterica.
The mark [15] stands for this setting: source organism: Zaire ebolavirus.
The mark [16] stands for this setting: source organism: Sudan ebolavirus.
[17] abbreviates: source organism: Vaccinia virus Copenhagen.

pIC50, pKd: −log10 of the molar value.

For ESDMDYHKI, the values for the pIC50 with HLA-A*01:01 [1] (setting [15]) and with HLA-A*24:02 (setting [15]) were at most 3.93 and at most 3.96, respectively.

On to GTGPCPGDY, for which the pIC50 was at most 3.94 in the experiment with HLA-A*11:01 [2] and 4.97 with HLA-A*01:01 [1] (setting [16]).

As for KQKFPYEGG, the pIC50 in the experiment with HLA-B*15:01 (source organism: Vaccinia virus) was at most 3.63.

QPEWFRNIL showed a negative logarithm of the IC50 (pIC50) with HLA-B*07:02 [3] (source organism: Influenza A virus (A/Oklahoma/309/2006(H3N2))) of 6.73.

Take RLYDYFTRV: the pKd was at most 4.23 with HLA-A*03:01 [4]; at most 4.11 in the experiment with HLA-B*53:01; at most 4.11 in the experiment with HLA-A*33:01; 4.77 with HLA-B*07:02 [5]; at most 4.22 with HLA-B*54:01; at most 4.11 with HLA-A*68:01. Besides, the pKd with HLA-B*51:01 [6] was at most 4.11; in the experiment with HLA-A*11:01 [7], 6.81; in the experiment with HLA-B*35:01 it was at most 4.50; with HLA-A*31:01 it was 6.39; in the experiment with HLA-C*12:03 it was 6.03; in the experiment with HLA-A*02:01 [8] (source organism: Vaccinia virus L-IPV) it was 8.41.

Regarding RSDGYFLKI, the figures for the pIC50 with HLA-A*02:01 [9] (setting [17]), with HLA-A*01:01 [1] (setting [17]) and with HLA-A*24:02 (setting [17]) were 5.31, 5.47 and 4.79, respectively.

SLSKRERQL: the negative-log IC50 (pIC50) is 4.24 with HLA-B*07:02 [3] (setting [17]) and at most 4.12 in the experiment with HLA-B*08:01.

Take SPRMLTPIN: the pIC50 with HLA-B*07:02 [3] (setting [15]) is 5.29.

For the sequence TENTSSYYA, the pIC50 in the experiment with HLA-A*01:01 [1] (setting [16]) is at most 3.85.

With TINDLKMML, in the experiment with HLA-C*15:02 (setting [17]), the negative-log Kd (pKd) is 7.37.

With TTEANAGQF, the values for the pIC50 with HLA-A*01:01 [1] (setting [15]) and in the experiment with HLA-A*24:02 (setting [15]) were at most 3.96 and 4.66, respectively. The pKd with HLA-A*03:01 [10], with HLA-A*02:11, with HLA-A*02:12, with HLA-A*02:03, with HLA-A*23:01 and with HLA-A*02:19 was at most 4.70 in each case. In addition, the pKd with HLA-A*24:03, with HLA-A*68:02, with HLA-A*02:16, with HLA-A*01:01 [11], in the experiment with HLA-A*02:01 [8] (setting [15]) and in the experiment with HLA-A*69:01 was at most 4.70 each time. Moreover, the pKd with HLA-B*51:01 [12], with HLA-B*27:03, in the experiment with HLA-B*39:01, in the experiment with HLA-B*57:01 [13], with HLA-B*46:01 and with HLA-A*26:01 was at most 4.70 each time.

Regarding TTHHTIPLL, the pKd in the experiment with HLA-C*15:02 (source organism: Salmonella enterica subsp. enterica serovar Typhi str. CT18) was at most 4.70; with HLA-B*58:01 (source organism: Salmonella enterica subsp. enterica serovar Typhimurium), 5.49; in the experiment with HLA-B*15:17, 7.18; in the experiment with HLA-B*57:01 [14], 5.40.

As for VSARIAALF, the pKd with HLA-C*15:02 (source organism: Mycobacterium tuberculosis H37Rv) is 5.50; with HLA-B*58:01 (source organism: Mycobacterium tuberculosis), 7.44.

Turning to YPTAWQSVG, the pIC50 with HLA-B*07:02 [3] (setting [15]) was at most 3.76; in the experiment with HLA-A*24:02 (setting [15]), at most 3.68.

Consider YQVNNLEEI, for which the negative-log IC50 (pIC50) is 4.59 in the experiment with HLA-A*02:01 [9] (setting [15]), 4.26 with HLA-B*15:01 (setting [15]) and 5.78 with HLA-A*24:02 (setting [15]).

In the case of YTEGLMHNQ, the pIC50 with HLA-A*01:01 [1] (setting [16]) was at most 3.87.

One may read the pIC50 as the IC50 on a negative log10 scale, so that one unit is a factor of ten. A higher pIC50 goes with a small IC50. In general, pKd refers to the Kd on a negative log10 scale, so that one unit is a factor of ten.

Values taken from the Immune Epitope Database (IEDB).
